According to patent US20210324028A1 (Pfizer, published 2021):

Key:
human IL-15Rα = molecular target: T1, human IL-15Rα (human, UniProt Q13261 31-205, limits assumed); test: SPR, steady state
T1 construct: also called hIL-15Rα; IL-15 receptor alpha

human IL-2Rβ = molecular target: T2, human IL-2Rβ (human, UniProt P14784 27-240, limits assumed); test: SPR, steady state
T2 construct: also called hIL-2Rβ; IL-2 receptor beta
T2 sequence (looked up): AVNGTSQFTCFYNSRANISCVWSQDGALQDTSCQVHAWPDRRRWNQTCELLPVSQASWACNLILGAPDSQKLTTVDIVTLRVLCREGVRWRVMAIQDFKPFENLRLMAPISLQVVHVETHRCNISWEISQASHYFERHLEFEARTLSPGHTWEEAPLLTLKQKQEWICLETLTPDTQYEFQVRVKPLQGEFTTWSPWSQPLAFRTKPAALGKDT

T1 sequence (Q13261 31-205 limits assumed): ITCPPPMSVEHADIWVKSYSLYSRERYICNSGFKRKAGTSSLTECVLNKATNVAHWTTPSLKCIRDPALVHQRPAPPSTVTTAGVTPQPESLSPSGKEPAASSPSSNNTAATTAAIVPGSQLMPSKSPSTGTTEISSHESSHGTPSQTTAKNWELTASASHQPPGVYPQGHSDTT

B1: hIL-15 V49R/H32V (ligand)
chain: NWVNVISDLKKIEDLIQSMHIDATLYTESDVVPSCKVTAMKCFLLELQRISLESGDASIHDTVENLIILANNSLSSNGNVTESGCKECEELEEKNIKEFLQSFVHIVQMFINTGGGGSGHHHHHHHHGGGLNDIFEAQKIEWHE
A Kd (human IL-15Rα) of 0.0998 µM and a Kd (human IL-2Rβ) of 0.247 µM were found for B1 in this work.

B2: hIL-15 V49R/K10N (ligand)
chain: NWVNVISDLNKIEDLIQSMHIDATLYTESDVHPSCKVTAMKCFLLELQRISLESGDASIHDTVENLIILANNSLSSNGNVTESGCKECEELEEKNIKEFLQSFVHIVQMFINTGGGGSGHHHHHHHHGGGLNDIFEAQKIEWHE
A Kd (human IL-15Rα) of 0.128 µM and a Kd (human IL-2Rβ) of 0.23 µM were found for B2 in this work.

B3: hIL-15 V49R/I68R (ligand)
chain: NWVNVISDLKKIEDLIQSMHIDATLYTESDVHPSCKVTAMKCFLLELQRISLESGDASIHDTVENLIRLANNSLSSNGNVTESGCKECEELEEKNIKEFLQSFVHIVQMFINTGGGGSGHHHHHHHHGGGLNDIFEAQKIEWHE
A Kd (human IL-15Rα) of 0.102 µM and a Kd (human IL-2Rβ) of over 0.5 µM were found for B3 in this work.

B4: hIL-15 V49R/K10R (ligand)
chain: NWVNVISDLRKIEDLIQSMHIDATLYTESDVHPSCKVTAMKCFLLELQRISLESGDASIHDTVENLIILANNSLSSNGNVTESGCKECEELEEKNIKEFLQSFVHIVQMFINTGGGGSGHHHHHHHHGGGLNDIFEAQKIEWHE
A Kd (human IL-15Rα) of 0.0945 µM and a Kd (human IL-2Rβ) of 0.146 µM were found for B4 in this work.

B5: hIL-15 V49R/K10A (ligand)
chain: NWVNVISDLAKIEDLIQSMHIDATLYTESDVHPSCKVTAMKCFLLELQRISLESGDASIHDTVENLIILANNSLSSNGNVTESGCKECEELEEKNIKEFLQSFVHIVQMFINTGGGGSGHHHHHHHHGGGLNDIFEAQKIEWHE
A Kd (human IL-15Rα) of 0.15 µM and a Kd (human IL-2Rβ) of 0.321 µM were found for B5 in this work.

B6: hIL-15 V49R/K10G (ligand)
chain: NWVNVISDLGKIEDLIQSMHIDATLYTESDVHPSCKVTAMKCFLLELQRISLESGDASIHDTVENLIILANNSLSSNGNVTESGCKECEELEEKNIKEFLQSFVHIVQMFINTGGGGSGHHHHHHHHGGGLNDIFEAQKIEWHE
A Kd (human IL-15Rα) of 0.209 µM and a Kd (human IL-2Rβ) of over 0.5 µM were found for B6 in this work.

B7: hIL-15 V49R/K10Q (ligand)
chain: NWVNVISDLQKIEDLIQSMHIDATLYTESDVHPSCKVTAMKCFLLELQRISLESGDASIHDTVENLIILANNSLSSNGNVTESGCKECEELEEKNIKEFLQSFVHIVQMFINTGGGGSGHHHHHHHHGGGLNDIFEAQKIEWHE
A Kd (human IL-15Rα) of 0.1 µM and a Kd (human IL-2Rβ) of 0.25 µM were found for B7 in this work.

B8: hIL-15 V49R/I111S (ligand)
chain: NWVNVISDLKKIEDLIQSMHIDATLYTESDVHPSCKVTAMKCFLLELQRISLESGDASIHDTVENLIILANNSLSSNGNVTESGCKECEELEEKNIKEFLQSFVHIVQMFSNTGGGGSGHHHHHHHHGGGLNDIFEAQKIEWHE
A Kd (human IL-15Rα) of 0.223 µM and a Kd (human IL-2Rβ) of over 0.5 µM were found for B8 in this work.

B9: hIL-15 V49R/I68V (ligand)
chain: NWVNVISDLKKIEDLIQSMHIDATLYTESDVHPSCKVTAMKCFLLELQRISLESGDASIHDTVENLIVLANNSLSSNGNVTESGCKECEELEEKNIKEFLQSFVHIVQMFINTGGGGSGHHHHHHHHGGGLNDIFEAQKIEWHE
A Kd (human IL-15Rα) of 0.104 µM and a Kd (human IL-2Rβ) of 0.296 µM were found for B9 in this work.

B10: hIL-15 V49R/K10L (ligand)
chain: NWVNVISDLLKIEDLIQSMHIDATLYTESDVHPSCKVTAMKCFLLELQRISLESGDASIHDTVENLIILANNSLSSNGNVTESGCKECEELEEKNIKEFLQSFVHIVQMFINTGGGGSGHHHHHHHHGGGLNDIFEAQKIEWHE
A Kd (human IL-15Rα) of 0.124 µM and a Kd (human IL-2Rβ) of 0.348 µM were found for B10 in this work.

B11: hIL-15 V49R/K10E (ligand)
chain: NWVNVISDLEKIEDLIQSMHIDATLYTESDVHPSCKVTAMKCFLLELQRISLESGDASIHDTVENLIILANNSLSSNGNVTESGCKECEELEEKNIKEFLQSFVHIVQMFINTGGGGSGHHHHHHHHGGGLNDIFEAQKIEWHE
A Kd (human IL-15Rα) of 0.126 µM and a Kd (human IL-2Rβ) of 0.36 µM were found for B11 in this work.

B12: hIL-15 V49R/K10H (ligand)
chain: NWVNVISDLHKIEDLIQSMHIDATLYTESDVHPSCKVTAMKCFLLELQRISLESGDASIHDTVENLIILANNSLSSNGNVTESGCKECEELEEKNIKEFLQSFVHIVQMFINTGGGGSGHHHHHHHHGGGLNDIFEAQKIEWHE
A Kd (human IL-15Rα) of 0.0856 µM and a Kd (human IL-2Rβ) of 0.114 µM were found for B12 in this work.

B13: hIL-15 V49R/I68A (ligand)
chain: NWVNVISDLKKIEDLIQSMHIDATLYTESDVHPSCKVTAMKCFLLELQRISLESGDASIHDTVENLIALANNSLSSNGNVTESGCKECEELEEKNIKEFLQSFVHIVQMFINTGGGGSGHHHHHHHHGGGLNDIFEAQKIEWHE
A Kd (human IL-15Rα) of 0.113 µM and a Kd (human IL-2Rβ) of over 0.5 µM were found for B13 in this work.

B14: hIL-15 V49R/I68T (ligand)
chain: NWVNVISDLKKIEDLIQSMHIDATLYTESDVHPSCKVTAMKCFLLELQRISLESGDASIHDTVENLITLANNSLSSNGNVTESGCKECEELEEKNIKEFLQSFVHIVQMFINTGGGGSGHHHHHHHHGGGLNDIFEAQKIEWHE
A Kd (human IL-15Rα) of 0.0763 µM and a Kd (human IL-2Rβ) of over 0.5 µM were found for B14 in this work.

B15: hIL-15 V49R/K10W (ligand)
chain: NWVNVISDLWKIEDLIQSMHIDATLYTESDVHPSCKVTAMKCFLLELQRISLESGDASIHDTVENLIILANNSLSSNGNVTESGCKECEELEEKNIKEFLQSFVHIVQMFINTGGGGSGHHHHHHHHGGGLNDIFEAQKIEWHE
A Kd (human IL-15Rα) of 0.101 µM and a Kd (human IL-2Rβ) of 0.185 µM were found for B15 in this work.

B16: hIL-15 V49R/I68H (ligand)
chain: NWVNVISDLKKIEDLIQSMHIDATLYTESDVHPSCKVTAMKCFLLELQRISLESGDASIHDTVENLIHLANNSLSSNGNVTESGCKECEELEEKNIKEFLQSFVHIVQMFINTGGGGSGHHHHHHHHGGGLNDIFEAQKIEWHE
A Kd (human IL-15Rα) of 0.0876 µM and a Kd (human IL-2Rβ) of over 1 µM were found for B16 in this work.

B17: hIL-15 V49R/K10D (ligand)
chain: NWVNVISDLDKIEDLIQSMHIDATLYTESDVHPSCKVTAMKCFLLELQRISLESGDASIHDTVENLIILANNSLSSNGNVTESGCKECEELEEKNIKEFLQSFVHIVQMFINTGGGGSGHHHHHHHHGGGLNDIFEAQKIEWHE
A Kd (human IL-15Rα) of 0.27 µM and a Kd (human IL-2Rβ) of over 0.5 µM were found for B17 in this work.

B18: hIL-15 V49R/I111A (ligand)
chain: NWVNVISDLKKIEDLIQSMHIDATLYTESDVHPSCKVTAMKCFLLELQRISLESGDASIHDTVENLIILANNSLSSNGNVTESGCKECEELEEKNIKEFLQSFVHIVQMFANTGGGGSGHHHHHHHHGGGLNDIFEAQKIEWHE
A Kd (human IL-15Rα) of 0.173 µM and a Kd (human IL-2Rβ) of 0.375 µM were found for B18 in this work.

B19: hIL-15 V49R/I111K (ligand)
chain: NWVNVISDLKKIEDLIQSMHIDATLYTESDVHPSCKVTAMKCFLLELQRISLESGDASIHDTVENLIILANNSLSSNGNVTESGCKECEELEEKNIKEFLQSFVHIVQMFKNTGGGGSGHHHHHHHHGGGLNDIFEAQKIEWHE
A Kd (human IL-15Rα) of 0.199 µM and a Kd (human IL-2Rβ) of 0.397 µM were found for B19 in this work.

B20: hIL-15 V49R/I68L (ligand)
chain: NWVNVISDLKKIEDLIQSMHIDATLYTESDVHPSCKVTAMKCFLLELQRISLESGDASIHDTVENLILLANNSLSSNGNVTESGCKECEELEEKNIKEFLQSFVHIVQMFINTGGGGSGHHHHHHHHGGGLNDIFEAQKIEWHE
A Kd (human IL-15Rα) of 0.0736 µM and a Kd (human IL-2Rβ) of 0.245 µM were found for B20 in this work.

B21: hIL-15 V49R/K10S (ligand)
chain: NWVNVISDLSKIEDLIQSMHIDATLYTESDVHPSCKVTAMKCFLLELQRISLESGDASIHDTVENLIILANNSLSSNGNVTESGCKECEELEEKNIKEFLQSFVHIVQMFINTGGGGSGHHHHHHHHGGGLNDIFEAQKIEWHE
A Kd (human IL-15Rα) of 0.195 µM and a Kd (human IL-2Rβ) of 0.496 µM were found for B21 in this work.

B22: hIL-15 V49R/I68Y (ligand)
chain: NWVNVISDLKKIEDLIQSMHIDATLYTESDVHPSCKVTAMKCFLLELQRISLESGDASIHDTVENLIYLANNSLSSNGNVTESGCKECEELEEKNIKEFLQSFVHIVQMFINTGGGGSGHHHHHHHHGGGLNDIFEAQKIEWHE
A Kd (human IL-15Rα) of 0.0929 µM and a Kd (human IL-2Rβ) of over 1 µM were found for B22 in this work.

B23: hIL-15 V49R/K10M (ligand)
chain: NWVNVISDLMKIEDLIQSMHIDATLYTESDVHPSCKVTAMKCFLLELQRISLESGDASIHDTVENLIILANNSLSSNGNVTESGCKECEELEEKNIKEFLQSFVHIVQMFINTGGGGSGHHHHHHHHGGGLNDIFEAQKIEWHE
A Kd (human IL-15Rα) of 0.122 µM and a Kd (human IL-2Rβ) of 0.391 µM were found for B23 in this work.

B24: hIL-15 V49R/I68F (ligand)
chain: NWVNVISDLKKIEDLIQSMHIDATLYTESDVHPSCKVTAMKCFLLELQRISLESGDASIHDTVENLIFLANNSLSSNGNVTESGCKECEELEEKNIKEFLQSFVHIVQMFINTGGGGSGHHHHHHHHGGGLNDIFEAQKIEWHE
A Kd (human IL-15Rα) of 0.0785 µM and a Kd (human IL-2Rβ) of over 1 µM were found for B24 in this work.

B25: hIL-15 V49R/I111D (ligand)
chain: NWVNVISDLKKIEDLIQSMHIDATLYTESDVHPSCKVTAMKCFLLELQRISLESGDASIHDTVENLIILANNSLSSNGNVTESGCKECEELEEKNIKEFLQSFVHIVQMFDNTGGGGSGHHHHHHHHGGGLNDIFEAQKIEWHE
A Kd (human IL-15Rα) of 0.214 µM and a Kd (human IL-2Rβ) of over 0.5 µM were found for B25 in this work.

B26: hIL-15 V49R/I68M (ligand)
chain: NWVNVISDLKKIEDLIQSMHIDATLYTESDVHPSCKVTAMKCFLLELQRISLESGDASIHDTVENLIMLANNSLSSNGNVTESGCKECEELEEKNIKEFLQSFVHIVQMFINTGGGGSGHHHHHHHHGGGLNDIFEAQKIEWHE
A Kd (human IL-15Rα) of 0.0962 µM and a Kd (human IL-2Rβ) of over 1 µM were found for B26 in this work.

B27: hIL-15 V49R/I68N (ligand)
chain: NWVNVISDLKKIEDLIQSMHIDATLYTESDVHPSCKVTAMKCFLLELQRISLESGDASIHDTVENLINLANNSLSSNGNVTESGCKECEELEEKNIKEFLQSFVHIVQMFINTGGGGSGHHHHHHHHGGGLNDIFEAQKIEWHE
A Kd (human IL-15Rα) of 0.085 µM and a Kd (human IL-2Rβ) of over 1 µM were found for B27 in this work.
